Measured values as given in paper PMC8927045, “MAP3K1 Variant Causes Hyperactivation of Wnt4/β-Catenin/FOXL2 Signaling Contributing to 46,XY Disorders/Differences of Sex Development” (Frontiers in Genetics, 2022).

B1: MAP3K1^R186G-SmBiT-C (R186G variant of MAP3K1 fused to SmBiT) (enzyme, human, UniProt Q13233 1-1512, looked up)
chain: MAAAAGNRASSSGFPGARATSPEAGGGGGALKASSAPAAAAGLLREAGSGGRERADWRRRQLRKVRSVELDQLPEQPLFLAASPPASSTSPSPEPADAAGSGTGFQPVAVPPPHGAASRGGAHLTESVAAPDSGASSPAAAEPGEKRAPAAEPSPAAAPAGREMENKETLKGLHKMDDRPEERMIGEKLKATCMPAWKHEWLERRNRRGPVVVKPIPVKGDGSEMNHLAAESPGEVQASAASPASKGRRSPSPGNSPSGRTVKSESPGVRRKRVSPVPFQSGRITPPRRAPSPDGFSPYSPEETNRRVNKVMRARLYLLQQIGPNSFLIGGDSPDNKYRVFIGPQNCSCARGTFCIHLLFVMLRVFQLEPSDPMLWRKTLKNFEVESLFQKYHSRRSSRIKAPSRNTIQKFVSRMSNSHTLSSSSTSTSSSENSIKDEEEQMCPICLLGMLDEESLTVCEDGCRNKLHHHCMSIWAEECRRNREPLICPLCRSKWRSHDFYSHELSSPVDSPSSLRAAQQQTVQQQPLAGSRRNQESNFNLTHYGTQQIPPAYKDLAEPWIQVFGMELVGCLFSRNWNVREMALRRLSHDVSGALLLANGESTGNSGGSSGSSPSGGATSGSSQTSISGDVVEACCSVLSMVCADPVYKVYVAALKTLRAMLVYTPCHSLAERIKLQRLLQPVVDTILVKCADANSRTSQLSISTLLELCKGQAGELAVGREILKAGSIGIGGVDYVLNCILGNQTESNNWQELLGRLCLIDRLLLEFPAEFYPHIVSTDVSQAEPVEIRYKKLLSLLTFALQSIDNSHSMVGKLSRRIYLSSARMVTTVPHVFSKLLEMLSVSSSTHFTRMRRRLMAIADEVEIAEAIQLGVEDTLDGQQDSFLQASVPNNYLETTENSSPECTVHLEKTGKGLCATKLSASSEDISERLASISVGPSSSTTTTTTTTEQPKPMVQTKGRPHSQCLNSSPLSHHSQLMFPALSTPSSSTPSVPAGTATDVSKHRLQGFIPCRIPSASPQTQRKFSLQFHRNCPENKDSDKLSPVFTQSRPLPSSNIHRPKPSRPTPGNTSKQGDPSKNSMTLDLNSSSKCDDSFGCSSNSSNAVIPSDETVFTPVEEKCRLDVNTELNSSIEDLLEASMPSSDTTVTFKSEVAVLSPEKAENDDTYKDDVNHNQKCKEKMEAEEEEALAIAMAMSASQDALPIVPQLQVENGEDIIIIQQDTPETLPGHTKAKQPYREDTEWLKGQQIGLGAFSSCYQAQDVGTGTLMAVKQVTYVRNTSSEQEEVVEALREEIRMMSHLNHPNIIRMLGATCEKSNYNLFIEWMAGGSVAHLLSKYGAFKESVVINYTEQLLRGLSYLHENQIIHRDVKGANLLIDSTGQRLRIADFGAAARLASKGTGAGEFQGQLLGTIAFMAPEVLRGQQYGRSCDVWSVGCAIIEMACAKPPWNAEKHSNHLALIFKIASATTAPSIPSHLSPGLRDVALRCLELQPQDRPPSRELLKHPVFRTTW
notes: Same construct as m1 with the patient variant; The end of the SmBiT is not clear; also called MAP3K1-Mut; p.R186G variant; source: HEK293T, transfected, in cells
B2: MAP3K1^R186G-3×HA (enzyme, human, UniProt Q13233 1-1512, looked up)
chain: B1 chain
notes: human MAP3K1, full-length cDNA NM_005921.2 with the patients' variant c.556A>G, cloned into pcDNA3.1(+)-3×HA; Same construct as m7 with the patient variant; also called R186G variant; source: HEK293T, transfected, in lysate

Key:
[1] = biological target: T1, RHOA-LgBiT-N (RhoA fused to LgBiT) (human (from the RefSeq entry NM_001664; …, UniProt P61586 1-193); test: split reporter (BiFC, NanoBiT); NanoBiT in HEK293T cells co-transfected with SmBiT and LgBiT fusion plasmids (500 ng DNA in all, 24-well plate); 24 h after transfection medium replaced by OPTI-MEM, substrate added, signal read for 30 min; negative control: SmBiT-MAP3K1 plasmid alone; conditions: partners not purified
T1 construct: RhoA, RHOA gene (NM_001664); On which end of RhoA the LgBiT stands is not clear from the two names used; also called LgBit-RhoA-N; source: HEK293T, transfected, in cells
T1 sequence (P61586 whole entry, the tested form may be a part): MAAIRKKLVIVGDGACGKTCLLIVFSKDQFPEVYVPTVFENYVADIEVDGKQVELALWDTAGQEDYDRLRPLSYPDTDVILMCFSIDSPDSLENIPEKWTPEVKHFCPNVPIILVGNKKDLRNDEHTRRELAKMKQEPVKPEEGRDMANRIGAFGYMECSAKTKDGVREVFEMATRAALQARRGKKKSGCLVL

RHOA-3×Flag = biological target: T2, RHOA-3×Flag (human (from the RefSeq entry NM_001664; …, UniProt P61586 1-193); test: co-IP; HEK293T cells co-transfected with MAP3K1-3×HA and RHOA-3×Flag; 48 h after transfection lysed in modified RIPA buffer; anti-Flag or anti-HA magnetic beads overnight at 4°C; blot with anti-HA or anti-FLAG; ratio of Co-IP to IP band intensity; conditions: partners not purified
T2 construct: RhoA, RHOA gene (NM_001664) cloned into p3×Flag-CMV-14; also called RhoA-Flag; source: HEK293T, transfected, in lysate
T2 sequence (P61586 whole entry): as the sequence (P61586 whole entry, the tested form may be a part) above

Binder | fold of the wild type's NanoBiT signal [1] | fold of the wild type's ratio of Co-IP to IP signal (RHOA-3×Flag) [times wild type]
B1 | 3.19 ± 0.18 fold of wild type | –
B2 | – | 2.57
